Test results as given in the supplement of paper PMC9170038.

Tested on: MS2 coat protein
Assay: apparent KD of MS2 coat protein; designed switch direction (-1 OFF switch, 1 ON switch): -1; higher = weaker reporter binding
Summary of the method: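 On Illumina chips, designed RNA switches with common flanks were made by stalled E. coli RNA polymerase. Titrations with SNAP-549-labelled MS2 coat protein, doubling from 0.7 or 1.5 nM to 3 µM, were done with no input, with 200 uM small-molecule ligand, or with an oligonucleotide input. Apparent KD is the median per design over clusters, from curve fits of normalised cluster fluorescence.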

[1] = Eterna round: R95, input ligand: microRNA oligo, concentration not stated
[2] = input ligand: microRNA oligo, concentration not stated
[3] = Eterna round: R95, input ligand: FMN 200 uM
[4] = Eterna round: R95, input ligand: none

GAAAAGUAAGGAUAUGUCCACAGUGAGGAAACUCACUGUGGACAGAAGGUACAUGAGGAUCACCCAUGUUUCUC [ExDelusion 3 - Jieux - Exclusion 4] (Eterna round: R97, puzzle: Exclusion 4)
apparent KD of MS2 coat protein (input ligand: FMN 200 uM): 213 nM | apparent KD of MS2 coat protein (input ligand: none): 39 nM

AAAUUCUGAGGAUAUCGAUGUUUGUACAUGAGGAUCACCCAUGUCCUUUUUAUUUUUUCUCGAGAAGGCAGUGUAU [JR_E5_Sub100] (puzzle: Exclusion 5)
apparent KD of MS2 coat protein [1]: 34.2 nM

GUGGUACAUGAGGAUCACCCAUGUCAGGAUAUCGUGUGUUUUUUUUCGGCCGCGCGCGCGAGAAGGGACGUCUU (puzzle: Exclusion 1)
apparent KD of MS2 coat protein [1]: 16.8 nM

CUGAGAUGAGGAUAUACAUGAGGAUCACCCAUGUAAAGUAGCUUGCGUACAGGCAGAUGUAGAAGGCAUUUCGG [Mod of JL 4 - Jieux - Exclusion 3] (Eterna round: R97, puzzle: Exclusion 3)
apparent KD of MS2 coat protein (input ligand: FMN 200 uM): 44.7 nM | apparent KD of MS2 coat protein (input ligand: none): 25.3 nM

CCCACAAGCUUUUUGCUCGACAUGAGGAUCACCCAUGUUGAAUGGGUUAUAUGUGUGUGAUACAUAUAUAUGUACCU [-24.7, -47.9 kcal, A 26%] (Eterna round: R97, puzzle: Sensor, turn-off variant 1)
apparent KD of MS2 coat protein (input ligand: FMN 200 uM): 23.2 nM | apparent KD of MS2 coat protein (input ligand: none): 23.5 nM

GUCACAUGGACAUAGGAUCACAUGAGGAUCACCCAUGUGACUAACAAGCUUUUUGUUCGUCUUAUGUCCAUGUGAAG [Stov1/15-B3] (Eterna round: R97, puzzle: Sensor, turn-off variant 1)
apparent KD of MS2 coat protein (input ligand: FMN 200 uM): 12.4 nM | apparent KD of MS2 coat protein (input ligand: none): 12 nM

GUGACCAUAGGAUAUACAUGAGGAUCACCCAUGUGCAGGCCGAAAGACCUGCGGUCAUGUAGAAGGAUGUAAUU [EX3 A.17] (Eterna round: R97, puzzle: Exclusion 3)
apparent KD of MS2 coat protein (input ligand: FMN 200 uM): 19.6 nM | apparent KD of MS2 coat protein (input ligand: none): 16.4 nM

UCGUGAUUAGAGGAUAUAUUUUGAGUCAGAACAAUAGAAGGCUAAACAUGAGGAUCACCCAUGUAAAUGUGUAA [JR_Ex6_Sub061] (Eterna round: R97, puzzle: Exclusion 6)
apparent KD of MS2 coat protein (input ligand: FMN 200 uM): 184 nM | apparent KD of MS2 coat protein (input ligand: none): 34.9 nM

CCGGAACAUGAGGAUCACCCAUGUCAGGAUAUUCCAAAAUCGUCGAUAGACGAUAACAGGAGAAGGGACACCGG [Mat - Exclusion 1 - Eli Mod - D30] (Eterna round: R97, puzzle: Exclusion 1)
apparent KD of MS2 coat protein (input ligand: FMN 200 uM): 20.4 nM | apparent KD of MS2 coat protein (input ligand: none): 15.7 nM

AUGUUGCGAGGAUAUAUAAGGGUAUAAUAAUAAGAUAUGGAACAUGAGGAUCACCCAUGUAGAAGGUGCAUAAC [JR_Ex2_Sub040] (Eterna round: R97, puzzle: Exclusion 2)
apparent KD of MS2 coat protein (input ligand: FMN 200 uM): 840 nM | apparent KD of MS2 coat protein (input ligand: none): 21.1 nM

GGUGGACAUGAGGAUCACCCAUGUGAGGAUAUCGGCUGGUACGUGUUGGCUGGCUUCUCGAGAAGGCACAUAGU [Exclusion 1 V65] (puzzle: Exclusion 1)
apparent KD of MS2 coat protein [1]: 45.9 nM

AUUGUUUAUGUAGGAUAUGCCUGGCGUGCCUUCGCAGAAGGACAUGAGGAUCACCCAUGUAUUGCGGUCUGCGUUCAGAUCGCC [salish99_ExNG1_r4_027] (Eterna round: R96, puzzle: Exclusion NG 1)
apparent KD of MS2 coat protein (input ligand: FMN 200 uM): 21.3 nM | apparent KD of MS2 coat protein [2]: 15 nM | apparent KD of MS2 coat protein (input ligand: none): 19.3 nM

CCGGAAAGGGAGGAUAUAGGAGUCGAUAGACACCUAGAAGGUCUGACAUGAGGAUCACCCAUGUGUCCUACCGG [Fiskers Ex 6 - 90] (puzzle: Exclusion 6)
apparent KD of MS2 coat protein [3]: 20.3 nM | apparent KD of MS2 coat protein [1]: 19.9 nM | apparent KD of MS2 coat protein [4]: 19.8 nM

UGUGGAGCUUAGGAUAUUGCUCUACCAAGAGGGCGAGAAGGGAGCACAUGAGGAUCACCCAUGUGGUCCGGAAC [Edoroner] (puzzle: Exclusion 6)
apparent KD of MS2 coat protein [3]: 26 nM | apparent KD of MS2 coat protein [1]: 14.7 nM | apparent KD of MS2 coat protein [4]: 14.6 nM

UUCUUGUGAGGAUAUCAGUAGUAAAUAAAUAAAAUUACUACUGAGAAGGCACAUGAGGAUCACCCAUGUUCCUU [salish99_ex3_r3_092] (puzzle: Exclusion 4)
apparent KD of MS2 coat protein [1]: 15 nM

ACAGCGUGAGGAUAUACAUGAGGAUCACCCAUGUAUGGCAGGUUAUCCUGUCGUGAGUGUAGAAGGCACGCUGU [Exclusion 3 - Oddities v.5 ( A small slide from ms2 to fmn)] (puzzle: Exclusion 3)
apparent KD of MS2 coat protein [1]: 15.4 nM

CCUCGCCCUCUUGCACAUGAGGAUCACCCAUGUUUUACGUACUAGGAUAUAGCUAUGUUCAAUCGUUAGAAGGAGUUCAUGGAU [Eternabot solution 37] (Eterna round: R96, puzzle: Exclusion NG 3)
apparent KD of MS2 coat protein [2]: 77.4 nM

ACAUGUAAUGCAGGAUAUUUUACACAUGAGGAUCACCCAUGUGACCAGAGGAAUUGCUAUGAGUAGAAGAAGGGUAUGUACAUG [Ex NG2 #56] (Eterna round: R96, puzzle: Exclusion NG 2)
apparent KD of MS2 coat protein (input ligand: FMN 200 uM): 78.8 nM | apparent KD of MS2 coat protein [2]: 56.7 nM | apparent KD of MS2 coat protein (input ligand: none): 64.4 nM

GCACGGAAUGCAGGAUAUCUGUGCGAUUAGCUCAGAGAAGGGCACAUGAGGAUCACCCAUGUGUAUAAAACACAAAAUCCGUGC [Eli exng1 - 067] (Eterna round: R96, puzzle: Exclusion NG 1)
apparent KD of MS2 coat protein (input ligand: FMN 200 uM): 13.5 nM | apparent KD of MS2 coat protein [2]: 7.71 nM | apparent KD of MS2 coat protein (input ligand: none): 13.8 nM

AUCGUAGCAGGAUAUCCGGAGAUUGACAUGAGGAUCACCCAUGUGGUCAUGCCAGCCAAUGGAGAAGGGUUUCGGU [Eternabot (L1) Solution 49] (Eterna round: R97, puzzle: Exclusion 5)
apparent KD of MS2 coat protein (input ligand: FMN 200 uM): 618 nM | apparent KD of MS2 coat protein (input ligand: none): 637 nM

GAGCAGCGAGGAUAUACCUGGACCUGGUCCCAGGCCGAUCAACUUGAGGAUCACCCAAGUAGAAGGCGUGGCUC [Ceortiti] (Eterna round: R97, puzzle: Exclusion 2)
apparent KD of MS2 coat protein (input ligand: FMN 200 uM): 322 nM | apparent KD of MS2 coat protein (input ligand: none): 401 nM

CUGGUCCGAGGAUAUAUUUUGUGAUACAUGAGGAUCACCCAUGUAAUAAGAUGGAAGUAAAUAGAAGGCGGACUAG [Mat - Exclusion 5 - JL mod - D47] (puzzle: Exclusion 5)
apparent KD of MS2 coat protein [3]: 69.3 nM | apparent KD of MS2 coat protein [1]: 125 nM | apparent KD of MS2 coat protein [4]: 150 nM

AUCAUGUCAGGAUAUGUGACAUGGAUCUUCGGAUCAAGAUCACAGAAGGGACAUGAGGAUCACCCAUGUCGAUC [Ex4-3: 29] (puzzle: Exclusion 4)
apparent KD of MS2 coat protein [1]: 66.9 nM

CUAAUUUGUGUGAGGAUAUGGCGACAGGAGACUAGCCAGAAGGUACAUGAGGAUCACCCAUGUAAGGUCCUCUC [Eternabot (L1) Solution 86] (Eterna round: R97, puzzle: Brourd's mod of Exclusion 4)
apparent KD of MS2 coat protein (input ligand: FMN 200 uM): 16.8 nM | apparent KD of MS2 coat protein (input ligand: none): 16.3 nM

AGGUGUAGAGGAUAUACAGUGUAUUACAUGAGGAUCACCCAUGUCCCUCAAUGAGUGUCAGUAGAAGGCUACACCA [Omei Ex5 C3] (Eterna round: R97, puzzle: Exclusion 5)
apparent KD of MS2 coat protein (input ligand: FMN 200 uM): 329 nM | apparent KD of MS2 coat protein (input ligand: none): 403 nM

CUAGAUCUUCGGAUCUAGUACAUGAGGAUCACCCAUGUUACGAGCUGAUUUUCAUACAAGCUUUUUGCUCGUCUUAU [Sensor v3 - Turn-off variant 1 - 29] (puzzle: Sensor v3, turn-off variant 1)
apparent KD of MS2 coat protein [3]: 38.1 nM | apparent KD of MS2 coat protein [1]: 297 nM | apparent KD of MS2 coat protein [4]: 41.3 nM

AAUUAUUGAUGAGGAUAUUGUGGUGAAACACGACGAGAAGGCAUAUGUCACAUGAGGAUCACCCAUGUGAGCCUUGUGCAUAUA [Ex NG1 #64] (Eterna round: R96, puzzle: Exclusion NG 1)
apparent KD of MS2 coat protein [2]: 15.8 nM

GAUCAGGUAGGAUAUGCAGGAUCGGACUUGAGGAUCACCCAAGUGGCCAAAGUGCGUCCCGCAGAAGGGCCAAAAC [Biinxelace] (Eterna round: R97, puzzle: Exclusion 5)
apparent KD of MS2 coat protein (input ligand: FMN 200 uM): 439 nM | apparent KD of MS2 coat protein (input ligand: none): 618 nM

CCGCUGUGAGGAUAUUAGUAGUAGUCAGAAUAGACUAUUACUGAGAAGGCACAUGAGGAUCACCCAUGUAGCGG [Eli x4 4.25] (Eterna round: R97, puzzle: Exclusion 4)
apparent KD of MS2 coat protein (input ligand: FMN 200 uM): 24.8 nM | apparent KD of MS2 coat protein (input ligand: none): 28.9 nM

GAUUAACAUGAGGAUCACCCAUGUGAGGAUAUUGACUUGCUCACUUUCCCAUUUGAGUCGAGAAGGCGCAUCUG [1986#22] (Eterna round: R97, puzzle: Exclusion 1)
apparent KD of MS2 coat protein (input ligand: FMN 200 uM): 68.8 nM | apparent KD of MS2 coat protein (input ligand: none): 39 nM

CCAGCAAGUUCAGCUCGUCACAUGAGGAUCACCCAUGUUAAGUAAUCCUUCUCUUCUAGGUAGCGCCGGAGAGAGGG [Eternabot (Original) Solution 16] (Eterna round: R97, puzzle: Sensor, turn-off variant 1)
apparent KD of MS2 coat protein (input ligand: FMN 200 uM): 32.6 nM | apparent KD of MS2 coat protein (input ligand: none): 43.3 nM

CUCUGCACGCUGCGGUCCUACAUGAGGAUCACCCAUGUGGUCUGGUGGCGUGGGUCGCCGGACUUGGCUCGUCUUGG [salish99_S_TOV1_R5_047] (Eterna round: R97, puzzle: Sensor, turn-off variant 1)
apparent KD of MS2 coat protein (input ligand: FMN 200 uM): 15.4 nM | apparent KD of MS2 coat protein (input ligand: none): 15.8 nM

UGUGUGUCAGGAUAUAGUUCGAGUUCGGAAAUGAGCUUGAGCUAGAAGGGACAUGAGGAUCACCCAUGUGCACG [-26.3, -25.3 kcal, A 27%, 1-(ca)1] (Eterna round: R97, puzzle: Exclusion 4)
apparent KD of MS2 coat protein (input ligand: FMN 200 uM): 148 nM | apparent KD of MS2 coat protein (input ligand: none): 83.6 nM

AAAUUGGUAGAGGAUAUCGUACAGGAAACGAUGCGAGAAGGCUGCACAUGAGGAUCACCCAUGUUUAGUUGCGA [EX6 #42] (Eterna round: R97, puzzle: Exclusion 6)
apparent KD of MS2 coat protein (input ligand: FMN 200 uM): 19.2 nM | apparent KD of MS2 coat protein (input ligand: none): 19.4 nM

CAUUAUGUUGAGGAUAUGCGCCGGCUCGCUGGCGCAGAAGGCGACACAUGAGGAUCACCCAUGUCAGUUCGCGA [salish99_ex6_r004_418] (Eterna round: R97, puzzle: Exclusion 6)
apparent KD of MS2 coat protein (input ligand: FMN 200 uM): 13.3 nM | apparent KD of MS2 coat protein (input ligand: none): 8.87 nM
